{"source": "patent US20160280784A1", "about": "“Antibodies Directed to GPNMB and Uses Thereof” (Celldex Therapeutics, Inc., priority 2009, published 2016)", "key": {"melanoma": {"tested_on": "melanoma", "conditions": "melanoma patients; cited from earlier work"}, "[1]": {"tested_on": "patients with locally advanced or metastatic breast cancer", "test": "Phase I/II study of CDX-011, preliminary 18 patients: toxicity and dose escalation", "format": "in vivo, human", "description": "(§1) There was no limit to the number of prior regimens.\n(§2) For Phase I dose escalation studies, the starting dose was 1.34 mg/kg IV every three weeks (q3w). Sequential dose cohorts (n=3) were enrolled based on tolerability. The cap was set at 1.88 mg/kg IV q3w.\nThe toxicity results are shown below in Table 34. All treatment-emergent adverse events are shown in the table, regardless of attribution."}, "[2]": {"tested_on": "GPNMB-expressing breast cancer cells", "test": "growth / killing of GPNMB-expressing breast cancer cells in vitro", "format": "cell-based"}, "[3]": {"tested_on": "patients with locally advanced or metastatic breast cancer", "test": "Phase II Simon Two-Stage study / Phase II dose: anti-tumor activity (RECIST)", "format": "in vivo, human", "conditions": "for Median PFS: Phase II Dose 1.88 mg/kg", "description": "(§3) For the Phase II Simon Two-Stage study, the primary endpoint was set at progression-free rate at 12 weeks. The following statistical assumptions were used p0=10%; p1=30%; α=β=0.10; first stage included sixteen patients; and if two or more patients were progression-free at 12 weeks, the total enrollment would increase to 25.\nAdditional measures of anti-tumor activity were evaluated for the patients in this further study."}, "[4]": {"tested_on": "patients with locally advanced or metastatic breast cancer", "test": "Phase I/II study of CDX-011, preliminary 18 patients: tumor response", "format": "in vivo, human", "description": "as §1, §2"}, "[5]": {"tested_on": "patients with locally advanced or metastatic breast cancer", "test": "Phase II study (n = 42): tolerability of CR011-vcMMAE (CDX-011)", "format": "in vivo, human", "text": "as §3\nIn particular, the treated patients (n=42) received a mean of 3.5 (range 1-8) cycles of treatment during this study. Four patients discontinued treatment due to adverse events (neuropathy, rash, dermatologic bullae and acute renal failure). Dose-escalation dose-limiting toxicities (DLTs) were limited to two cases of neuropathy (at the 1.34 mg/kg dose). After revision of the protocol to exclude pre-existing neuropathy ≧Grade 2, no further DLT occurred."}, "[6]": {"conditions": "18 patients, regardless of attribution"}, "[7]": {"conditions": "one patient with triple-negative disease, strongly positive stromal GPNMB expression"}, "[8]": {"conditions": "All Patients (n = 42), potentially related to CDX-011"}}}
{"substance": "glembatumumab vedotin [CDX-011]", "values": [{"measurement": "clinical activity", "setting": "melanoma", "result": "clinical activity"}, {"measurement": "tolerability", "setting": "melanoma", "result": "well tolerated"}, {"measurement": "tolerability in dose escalation", "setting": "[1]; 1.88 mg/kg IV q3w", "result": "tolerated"}, {"measurement": "Alopecia, Total", "setting": "[1]; [6]", "result": "9 (50%) n (%)"}, {"measurement": "Anorexia, Grade 3", "setting": "[1]; [6]", "result": "0 (0%) n (%)"}, {"measurement": "Anorexia, Grade 4", "setting": "[1]; [6]", "result": "0 (0%) n (%)"}, {"measurement": "Anorexia, Total", "setting": "[1]; [6]", "result": "5 (28%) n (%)"}, {"measurement": "Any Event, Grade 3", "setting": "[1]; [6]", "result": "10 (56%) n (%)"}, {"measurement": "Any Event, Grade 4", "setting": "[1]; [6]", "result": "0 (0%) n (%)"}, {"measurement": "Any Event, Total", "setting": "[1]; [6]", "result": "18 (100%) n (%)"}, {"measurement": "Constipation, Grade 3", "setting": "[1]; [6]", "result": "0 (0%) n (%)"}, {"measurement": "Constipation, Grade 4", "setting": "[1]; [6]", "result": "0 (0%) n (%)"}, {"measurement": "Constipation, Total", "setting": "[1]; [6]", "result": "6 (33%) n (%)"}, {"measurement": "Cough, Grade 3", "setting": "[1]; [6]", "result": "1 (6%) n (%)"}, {"measurement": "Cough, Grade 4", "setting": "[1]; [6]", "result": "0 (0%) n (%)"}, {"measurement": "Cough, Total", "setting": "[1]; [6]", "result": "6 (33%) n (%)"}, {"measurement": "Diarrhea, Grade 3", "setting": "[1]; [6]", "result": "0 (0%) n (%)"}, {"measurement": "Diarrhea, Grade 4", "setting": "[1]; [6]", "result": "0 (0%) n (%)"}, {"measurement": "Diarrhea, Total", "setting": "[1]; [6]", "result": "5 (28%) n (%)"}, {"measurement": "Dizziness, Grade 3", "setting": "[1]; [6]", "result": "0 (0%) n (%)"}, {"measurement": "Dizziness, Grade 4", "setting": "[1]; [6]", "result": "0 (0%) n (%)"}, {"measurement": "Dizziness, Total", "setting": "[1]; [6]", "result": "4 (22%) n (%)"}, {"measurement": "Dysgeusia, Grade 3", "setting": "[1]; [6]", "result": "0 (0%) n (%)"}, {"measurement": "Dysgeusia, Grade 4", "setting": "[1]; [6]", "result": "0 (0%) n (%)"}, {"measurement": "Dysgeusia, Total", "setting": "[1]; [6]", "result": "4 (22%) n (%)"}, {"measurement": "Fatigue, Grade 3", "setting": "[1]; [6]", "result": "1 (6%) n (%)"}, {"measurement": "Fatigue, Grade 4", "setting": "[1]; [6]", "result": "0 (0%) n (%)"}, {"measurement": "Fatigue, Total", "setting": "[1]; [6]", "result": "9 (50%) n (%)"}, {"measurement": "Fever, Grade 3", "setting": "[1]; [6]", "result": "0 (0%) n (%)"}, {"measurement": "Fever, Grade 4", "setting": "[1]; [6]", "result": "0 (0%) n (%)"}, {"measurement": "Fever, Total", "setting": "[1]; [6]", "result": "5 (28%) n (%)"}, {"measurement": "Nausea, Grade 3", "setting": "[1]; [6]", "result": "1 (6%) n (%)"}, {"measurement": "Nausea, Grade 4", "setting": "[1]; [6]", "result": "0 (0%) n (%)"}, {"measurement": "Nausea, Total", "setting": "[1]; [6]", "result": "8 (44%) n (%)"}, {"measurement": "Neuropathy, Grade 3", "setting": "[1]; [6]", "result": "2 (11%) n (%)"}, {"measurement": "Neuropathy, Grade 4", "setting": "[1]; [6]", "result": "0 (0%) n (%)"}, {"measurement": "Neuropathy, Total", "setting": "[1]; [6]", "result": "7 (39%) n (%)"}, {"measurement": "Neutropenia, Grade 3", "setting": "[1]; [6]", "result": "3 (17%) n (%)"}, {"measurement": "Neutropenia, Grade 4", "setting": "[1]; [6]", "result": "0 (0%) n (%)"}, {"measurement": "Neutropenia, Total", "setting": "[1]; [6]", "result": "5 (28%) n (%)"}, {"measurement": "Pain, Gastrointestinal, Grade 3", "setting": "[1]; [6]", "result": "1 (6%) n (%)"}, {"measurement": "Pain, Gastrointestinal, Grade 4", "setting": "[1]; [6]", "result": "0 (0%) n (%)"}, {"measurement": "Pain, Gastrointestinal, Total", "setting": "[1]; [6]", "result": "6 (33%) n (%)"}, {"measurement": "Pain, Musculoskeletal, Grade 3", "setting": "[1]; [6]", "result": "1 (6%) n (%)"}, {"measurement": "Pain, Musculoskeletal, Grade 4", "setting": "[1]; [6]", "result": "0 (0%) n (%)"}, {"measurement": "Pain, Musculoskeletal, Total", "setting": "[1]; [6]", "result": "5 (28%) n (%)"}, {"measurement": "Pruritus, Grade 3", "setting": "[1]; [6]", "result": "0 (0%) n (%)"}, {"measurement": "Pruritus, Grade 4", "setting": "[1]; [6]", "result": "0 (0%) n (%)"}, {"measurement": "Pruritus, Total", "setting": "[1]; [6]", "result": "3 (17%) n (%)"}, {"measurement": "Rash, Grade 3", "setting": "[1]; [6]", "result": "1 (6%) n (%)"}, {"measurement": "Rash, Grade 4", "setting": "[1]; [6]", "result": "0 (0%) n (%)"}, {"measurement": "Rash, Total", "setting": "[1]; [6]", "result": "11 (61%) n (%)"}, {"measurement": "Vomiting, Grade 3", "setting": "[1]; [6]", "result": "0 (0%) n (%)"}, {"measurement": "Vomiting, Grade 4", "setting": "[1]; [6]", "result": "0 (0%) n (%)"}, {"measurement": "Vomiting, Total", "setting": "[1]; [6]", "result": "7 (39%) n (%)"}, {"measurement": "dose-limiting toxicity", "setting": "[1]; first two patients enrolled at 1.34 mg/kg IV q3w, both had baseline neuropathy", "result": "dose-limiting worsening of peripheral sensory neuropathy"}, {"measurement": "patients discontinued for an adverse event", "setting": "[1]; of 18 patients treated, one for neuropathy and one for rash", "result": "two"}, {"measurement": "killing of GPNMB-expressing breast cancer cells", "setting": "[2]", "result": "selectively killed"}, {"measurement": "growth of GPNMB-expressing breast cancer cells", "setting": "[2]; in vitro", "result": "effectively inhibits the growth"}, {"measurement": "Median PFS", "setting": "[3]; all patients", "result": 9.1, "unit": "weeks"}, {"measurement": "Median PFS", "setting": "[3]; Expressing GPNMB", "result": 18.3, "unit": "weeks"}, {"measurement": "Median PFS", "setting": "[3]; Triple-negative disease", "result": 17.9, "unit": "weeks"}, {"measurement": "outcomes by expression of GPNMB", "setting": "[3]; heavily pretreated advanced breast cancer patients", "result": "associated with improved outcomes"}, {"measurement": "duration partial response was maintained", "setting": "[3]; [7]", "result": "≥ 23", "unit": "weeks"}, {"measurement": "tumor shrinkage (partial response)", "setting": "[3]; [7]", "result": 53, "unit": "%"}, {"measurement": "patients without progression at 12 weeks (primary efficacy endpoint)", "setting": "[3]; out of 26 patients", "result": "at least 9 patients"}, {"measurement": "tumor shrinkage", "setting": "[4]; initial results from a phase I/II trial, metastatic breast cancer", "result": "tumor shrinkage was observed"}, {"measurement": "confirmed partial response", "setting": "[4]; of the 18 patients", "result": "one"}, {"measurement": "patients with at least a partial response", "setting": "[4]; of the 18 patients", "result": "three"}, {"measurement": "tumor shrinkage observed", "setting": "[4]; of the 18 patients (50%)", "result": 9, "unit": "patients"}, {"measurement": "maximum tumor reduction", "setting": "[4]; one patient, ER+/PR+/HER2+, partial response after two cycles, confirmed 6 weeks later, treatment for over 5 months", "result": 42, "unit": "%"}, {"measurement": "reduction in target lesions (partial response, CT)", "setting": "[4]; one patient, ER+/PR+/HER2−, GPNMB positive biopsy, after two cycles", "result": 51, "unit": "%"}, {"measurement": "clinical outcome", "setting": "[4]; one patient, triple negative, skull metastases, following two cycles, resolution of mental nerve paresis and discontinuation of analgesics", "result": "marked clinical improvement"}, {"measurement": "reduction in target lesions (partial response, CT)", "setting": "[4]; one patient, triple negative, after four cycles", "result": 34, "unit": "%"}, {"measurement": "tolerability", "setting": "[5]; 1.88 mg/kg IV q3w, patients with advanced breast cancer", "result": "well-tolerated"}, {"measurement": "Alopecia, Total", "setting": "[5]; [8]", "result": "14 (33%) n (%)"}, {"measurement": "Anemia, Total", "setting": "[5]; [8]", "result": "10 (24%) n (%)"}, {"measurement": "Asthenia, Grade 3", "setting": "[5]; [8]", "result": "2 (5%) n (%)"}, {"measurement": "Asthenia, Total", "setting": "[5]; [8]", "result": "3 (7%) n (%)"}, {"measurement": "Fatigue, Grade 3", "setting": "[5]; [8]", "result": "2 (5%) n (%)"}, {"measurement": "Fatigue, Total", "setting": "[5]; [8]", "result": "20 (48%) n (%)"}, {"measurement": "Nausea, Grade 3", "setting": "[5]; [8]", "result": "2 (5%) n (%)"}, {"measurement": "Nausea, Total", "setting": "[5]; [8]", "result": "19 (45%) n (%)"}, {"measurement": "Neuropathy, Grade 3", "setting": "[5]; [8]", "result": "1 (2%) n (%)"}, {"measurement": "Neuropathy, Total", "setting": "[5]; [8]", "result": "10 (24%) n (%)"}, {"measurement": "Neutropenia, Grade 3", "setting": "[5]; [8]", "result": "8 (19%) n (%)"}, {"measurement": "Neutropenia, Total", "setting": "[5]; [8]", "result": "12 (29%) n (%)"}, {"measurement": "Rash, Grade 3", "setting": "[5]; [8]", "result": "2 (5%) n (%)"}, {"measurement": "Rash, Total", "setting": "[5]; [8]", "result": "19 (45%) n (%)"}, {"measurement": "Vomiting, Grade 3", "setting": "[5]; [8]", "result": "1 (2%) n (%)"}, {"measurement": "Vomiting, Total", "setting": "[5]; [8]", "result": "12 (29%) n (%)"}, {"measurement": "serious adverse events potentially related", "setting": "[5]; all single cases at the Phase II dose", "result": "intractable vomiting/nausea, dermatologic bullae and acute renal failure"}, {"measurement": "dose-escalation dose-limiting toxicities (DLTs)", "setting": "[5]; at the 1.34 mg/kg dose", "result": "two"}, {"measurement": "patients discontinued treatment due to adverse events", "setting": "[5]; n=42, neuropathy, rash, dermatologic bullae and acute renal failure", "result": "Four"}, {"measurement": "most common adverse event reported", "setting": "[5]; patients treated with CR011-vcMMAE", "result": "Rash"}]}
